Measurements taken from PMC5646249, “Structural Basis of Type 2 Secretion System Engagement between the Inner and Outer Bacterial Membranes” (mBio, 2017).

Molecular target: the molecule itself
Experiment: cryo-EM structure; single-particle cryo-EM of the detergent-solubilised, amphipol-stabilised ~1-MDa XcpQ multimer flash frozen on vitreous ice; Titan Krios, Gatan K2 Summit; 18,000+ particles; 2D class averages and 3D reconstruction under C15 symmetry, 3.6 Å

B1: XcpQ secretin of the Pseudomonas aeruginosa PAO1 type 2 secretion system (natural protein)
chain: ENSGGNAFVPAGNQQEAHWTINLKDADIREFIDQISEITGETFVVDPRVKGQVSVVSKAQLSLSEVYQLFLSVMSTHGFTVVAQGDQARIVPNAEAKTEAGGGQSAPDRLETRVIQVQQSPVSELIPLIRPLVPQYGHLAAVPSANALIISDRSANIARIEDVIRQLDQKGSHDYSVINLRYGWVMDAAEVLNNAMSRGQAKGAAGAQVIADARTNRLIILGPPQARAKLVQLAQSLDTPTARSANTRVIRLRHNDAKTLAETLGQISEGMKNNGGQGGEQTGGGRPSNILIRADESTNALVLLADPDTVNALEDIVRQLDVPRAQVLVEAAIVEISGDIQDAVGVQWAINKGGMGGTKTNFANTGLSIGTLLQSLESNKAPESIPDGAIVGIGSSSFGALVTALSANTKSNLLSTPSLLTLDNQKAEILVGQNVPFQTGSYTTNSEGSSNPFTTVERKDIGVSLKVTPHINDGAALRLEIEQEISALLPNAQQRNNTDLITSKRSIKSTILAENGQVIVIGGLIQDDVSQAESKVPLLGDIPLLGRLFRSTKDTHTKRNLMVFLRPTVVRDSAGLAALSGKKYSDIRVIDGTRGPEGRPSILPTNANQLFDGQAVDLRELMTE
notes: XcpQ, the secretin of the ancestral T2SS of Pseudomonas aeruginosa PAO1; four N domains (N0-N3), secretin domain (Pfam PF00263), S domain; numbers count on: the mature protein; N0 domains not seen and N1 domains poorly resolved in the map, though part of the purified protein; also called XcpQ secretin complex; XcpQ multimer; copies: 15
B1 was tested. Which “stoichiometry N” value did it give?
Its value is 15.
